Data reported in PMC3885427, “NPPB and ACAN, Two Novel SHOX2 Transcription Targets Implicated in Skeletal Development” (PLoS ONE, 2014).

Experiments:
Assay in all cases: two-hybrid; S. cerevisiae Y187 cotransformed with pGBT9 (GAL4 binding domain) and pACT2 (GAL4 activation domain) fusions; β-galactosidase liquid assay with CRPG as substrate; fragments and mutants given as percent of full-length or wild-type protein; empty vectors as negative controls
Details in all cases: partners not purified
[1] = target: T1, SHOX(117–274), yeast two-hybrid fusion (human, UniProt O15266 117-274)
T1 construct: SHOXa, human, residues 117-274; source: yeast two-hybrid fusion (S. cerevisiae Y187)

[2] = target: T2, SHOX(1–211), yeast two-hybrid fusion (human, UniProt O15266 1-211)
T2 construct: SHOXa, human, residues 1-211; source: yeast two-hybrid fusion (S. cerevisiae Y187)

[3] = target: T3, SHOX(178–292), yeast two-hybrid fusion (human, UniProt O15266 178-292)
T3 construct: SHOXa, human, residues 178-292; source: yeast two-hybrid fusion (S. cerevisiae Y187)
T3 sequence (looked up): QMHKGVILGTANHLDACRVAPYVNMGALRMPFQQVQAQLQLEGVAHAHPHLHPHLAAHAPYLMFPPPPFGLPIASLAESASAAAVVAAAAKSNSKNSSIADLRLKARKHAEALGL

[4] = target: T4, SHOX(117–292), yeast two-hybrid fusion (human, UniProt O15266 117-292)
T4 construct: SHOXa, human, residues 117-292; source: yeast two-hybrid fusion (S. cerevisiae Y187)

Measured: β-galactosidase units as percent of full-length SHOX

T2 sequence (O15266 1-211): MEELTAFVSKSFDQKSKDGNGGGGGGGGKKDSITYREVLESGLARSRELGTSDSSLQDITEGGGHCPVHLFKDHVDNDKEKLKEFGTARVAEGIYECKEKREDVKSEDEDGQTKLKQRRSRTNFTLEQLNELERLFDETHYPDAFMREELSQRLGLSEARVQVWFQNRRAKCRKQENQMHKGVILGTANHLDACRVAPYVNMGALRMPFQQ
T1 sequence (O15266 117-274): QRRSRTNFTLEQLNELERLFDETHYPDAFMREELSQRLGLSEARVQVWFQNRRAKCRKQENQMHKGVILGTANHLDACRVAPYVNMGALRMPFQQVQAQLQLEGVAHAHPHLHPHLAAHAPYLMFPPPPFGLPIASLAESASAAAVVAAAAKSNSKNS

B1: SHOX2a (called SHOX2 in the paper), full-length, yeast two-hybrid fusion (natural protein)
chain: not shown
notes: SHOX2a (short stature homeobox 2, isoform a), human; full-length cDNA NM_006884.3 made from IMAGE SHOX2 clone 4122010 by removing a 70 bp region; also called wild-type SHOX2; full-length SHOX2; source: yeast two-hybrid fusion (S. cerevisiae Y187)
< 50 % of the wildtype: all assays above
